Biological target: SARS-CoV-2 protein S receptor-binding domain (RBD), original Wuhan strain (SARS-CoV-2, UniProt P0DTC2 331-524)
Test: MST

Binder	Kd [µM]
IEEQAKTFLDKFNHQAEDLFYK [h1-Mpa peptide (h1 with Lys31 modified with 3-mercaptopropionic acid)]	> 1000
DKWSAFLKECSTIAQIYPLQEI [h2-Cys peptide (h2 with Gln76 replaced with Cys76)]	> 1000
